# In PMC8199036, “Improved Tumor-Targeting with Peptidomimetic Analogs of Minigastrin ^177Lu-PP-F11N” (Cancers, 2021):
# Like-named read-outs stand apart in the source and are kept apart here. Residues, ends and D or L forms follow the SMILES beside them.
# Legend:
# [1] = biodistribution in mice with CCK2R-positive xenografts; assay type: in vivo, female CD1-nu mice; conditions: female, CD1-nu, mouse, total radioactivity; for tissue uptake at 4 h / tissue uptake at 24 h / tissue uptake at 1 h: in vivo
# Protocol: (§1) Procedures for biodistribution studies with ^177Lu-labeled conjugates (10 pmol, 100 µL, 0.1 µM in PBS, 0.5 MBq, 1 µg/kg) in female CD1-nu mice with xenografts of A431-CCK2R cells at 1, 4, and 24 h p.i., as well as blocking experiments at 4 h p.i. with a 6000-fold excess of minigastrin have been reported previously and were followed without modifications. Statistical analysis was performed via GraphPad Prism using two-sided analysis of variance. n = 4 animals per group.
# [2] = tested on: xenografts of A431-CCK2R cells; test: as above; assay type: in vivo, female CD1-nu mice
# Protocol: as §1
# [3] = 10 pmol, Stomach (CCK2R-positive) uptake
# [4] = 10 pmol, Tumor (CCK2R-positive) uptake
# [5] = tumor / blood, 10 pmol, read-out: Tumor-to-Blood ratio
# [6] = tumor / kidneys, 10 pmol, read-out: Tumor-to-Kidneys ratio
# [7] = tumor / muscle, 10 pmol, read-out: Tumor-to-Muscle ratio
# [8] = tumor / stomach, 10 pmol, read-out: Tumor-to-Stomach ratio
# [9] = female, CD1-nu, mouse, in vivo, 10 pmol, 4 h
smiles,measurement,setting,value
"CCCC[C@H](NC(=O)[C@H](Cc1c[nH]c2ccccc12)NC(=O)Cn1cc([C@H](Cc2ccc(O)cc2)NC(=O)[C@H](C)NC(=O)[C@@H](CCC(=O)O)NC(=O)[C@@H](CCC(=O)O)NC(=O)[C@@H](CCC(=O)O)NC(=O)[C@@H](CCC(=O)O)NC(=O)[C@@H](CCC(=O)O)NC(=O)[C@@H](CCC(=O)O)NC(=O)CN2CCN(CC(=O)O)CCN(CC(=O)O)CCN(CC(=O)O)CC2)nn1)C(=O)N[C@@H](CC(=O)O)C(=O)N[C@@H](Cc1ccccc1)C(N)=O [NMG 2, DOTA-(DGlu)6-Ala-Tyr-Ψ[Tz]-Gly-Trp-Nle-Asp-Phe-NH2] (HELM PEPTIDE1{[O=C(O)CN1CCN(CC(=O)O)CCN(CC(=O)[*:2])CCN(CC(=O)O)CC1].[dE].[dE].[dE].[dE].[dE].[dE].A.[O=C(Cn1cc([C@H](Cc2ccc(O)cc2)N[*:1])nn1)[*:2]].W.[Nle].D.F.[am]}$$$$V2.0)",tissue uptake at 4 h,"[1]; 10 pmol, Blood uptake",0.01 %ID/g
same,tissue uptake at 24 h,"[1]; 10 pmol, Blood uptake",< 0.01 %ID/g
same,tissue uptake at 1 h,"[1]; 10 pmol, Bone uptake",0.29 %ID/g
same,tissue uptake at 4 h,"[1]; 10 pmol, Bone uptake",0.1 %ID/g
same,tissue uptake at 24 h,"[1]; 10 pmol, Bone uptake",0.07 %ID/g
same,tissue uptake at 1 h,"[1]; 10 pmol, Heart uptake",0.07 %ID/g
same,tissue uptake at 4 h,"[1]; 10 pmol, Heart uptake",0.02 %ID/g
same,tissue uptake at 24 h,"[1]; 10 pmol, Heart uptake",0.01 %ID/g
same,tissue uptake at 1 h,"[1]; 10 pmol, Intestines uptake",0.15 %ID/g
same,tissue uptake at 4 h,"[1]; 10 pmol, Intestines uptake",0.07 %ID/g
same,tissue uptake at 24 h,"[1]; 10 pmol, Intestines uptake",0.06 %ID/g
same,tissue uptake at 1 h,"[1]; 10 pmol, Kidneys uptake",2.19 %ID/g
same,tissue uptake at 4 h,"[1]; 10 pmol, Kidneys uptake",2.07 %ID/g
same,tissue uptake at 24 h,"[1]; 10 pmol, Kidneys uptake",1.33 %ID/g
same,tissue uptake at 1 h,"[1]; 10 pmol, Liver uptake",0.11 %ID/g
same,tissue uptake at 4 h,"[1]; 10 pmol, Liver uptake",0.05 %ID/g
same,tissue uptake at 24 h,"[1]; 10 pmol, Liver uptake",0.03 %ID/g
same,tissue uptake at 1 h,"[1]; 10 pmol, Lung uptake",0.18 %ID/g
same,tissue uptake at 4 h,"[1]; 10 pmol, Lung uptake",0.04 %ID/g
same,tissue uptake at 24 h,"[1]; 10 pmol, Lung uptake",0.02 %ID/g
same,tissue uptake at 1 h,"[1]; 10 pmol, Muscle uptake",0.05 %ID/g
same,tissue uptake at 4 h,"[1]; 10 pmol, Muscle uptake",0.01 %ID/g
same,tissue uptake at 24 h,"[1]; 10 pmol, Muscle uptake",0.01 %ID/g
same,tissue uptake at 1 h,"[1]; 10 pmol, Pancreas uptake",0.33 %ID/g
same,tissue uptake at 4 h,"[1]; 10 pmol, Pancreas uptake",0.28 %ID/g
same,tissue uptake at 24 h,"[1]; 10 pmol, Pancreas uptake",0.17 %ID/g
same,tissue uptake at 1 h,"[1]; 10 pmol, Spleen uptake",0.06 %ID/g
same,tissue uptake at 4 h,"[1]; 10 pmol, Spleen uptake",0.03 %ID/g
same,tissue uptake at 24 h,"[1]; 10 pmol, Spleen uptake",0.02 %ID/g
same,tissue uptake at 1 h,[1]; [3],2.85 %ID/g
same,tissue uptake at 4 h,[1]; [3],2.66 %ID/g
same,tissue uptake at 24 h,[1]; [3],1.63 %ID/g
same,tissue uptake at 1 h,[1]; [4],5.94 %ID/g
same,tissue uptake at 4 h,[1]; [4],7.15 %ID/g
same,tissue uptake at 24 h,[1]; [4],4.73 %ID/g
same,tissue uptake at 4 h,[1]; Blood uptake,0.01 %ID/g
same,tissue uptake at 4 h,[1]; Heart uptake,0.02 %ID/g
same,tissue uptake at 4 h,[1]; Intestines uptake,0.1 %ID/g
same,tissue uptake at 4 h,[1]; Kidneys uptake,2.24 %ID/g
same,tissue uptake at 4 h,[1]; Liver uptake,0.06 %ID/g
same,tissue uptake at 4 h,[1]; Lung uptake,0.04 %ID/g
same,tissue uptake at 4 h,[1]; Pancreas uptake,0.06 %ID/g
same,tissue uptake at 4 h,[1]; Spleen uptake,0.03 %ID/g
same,tissue uptake at 4 h,[1]; Stomach (CCK2R-positive) uptake,0.46 %ID/g
same,tissue uptake at 4 h,[1]; Tumor (CCK2R-positive) uptake,2.54 %ID/g
same,tissue to tissue ratio at 1 h,[1]; [5],31.1 ± 10.3
same,tissue to tissue ratio at 4 h,[1]; [5],715 ± 133
same,tissue to tissue ratio at 24 h,[1]; [5],4260 ± 1690
same,tissue to tissue ratio at 1 h,[1]; [6],2.76 ± 0.79
same,tissue to tissue ratio at 4 h,[1]; [6],3.5 ± 0.54
same,tissue to tissue ratio at 24 h,[1]; [6],3.78 ± 1.48
same,tissue to tissue ratio at 1 h,[1]; [7],124 ± 42.1
same,tissue to tissue ratio at 4 h,[1]; [7],715 ± 133
same,tissue to tissue ratio at 24 h,[1]; [7],441 ± 73.7
same,tissue to tissue ratio at 1 h,[1]; [8],2.68 ± 1.57
same,tissue to tissue ratio at 4 h,[1]; [8],3.08 ± 1.1
same,tissue to tissue ratio at 24 h,[1]; [8],3.13 ± 1.28
same,Tumor washout: tumor uptake relative to 1h,[2]; 4 h,120%
same,Tumor washout: tumor uptake relative to 1h,[2]; 24 h,80%
same,Bone uptake,[2]; [9],0.09 % i.A./g
same,Muscle uptake,[2]; [9],0.02 % i.A./g
